{"source": "IntAct's records for PubMed 20190753", "parents": {"B1": {"name": "Vacuolar protein sorting-associated protein 33B (Homo sapiens), Q9H267 (parent)", "chain": "MAFPHRPDAPELPDFSMLKRLARDQLIYLLEQLPGKKDLFIEADLMSPLDRIANVSILKQHEVDKLYKVENKPALSSNEQLCFLVRPRIKNMRYIASLVNADKLAGRTRKYKVIFSPQKFYACEMVLEEEGIYGDVSCDEWAFSLLPLDVDLLSMELPEFFRDYFLEGDQRWINTVAQALHLLSTLYGPFPNCYGIGRCAKMAYELWRNLEEEEDGETKGRRPEIGHIFLLDRDVDFVTALCSQVVYEGLVDDTFRIKCGSVDFGPEVTSSDKSLKVLLNAEDKVFNEIRNEHFSNVFGFLSQKARNLQAQYDRRRGMDIKQMKNFVSQELKGLKQEHRLLSLHIGACESIMKKKTKQDFQELIKTEHALLEGFNIRESTSYIEEHIDRQVSPIESLRLMCLLSITENGLIPKDYRSLKTQYLQSYGPEHLLTFSNLRRAGLLTEQAPGDTLTAVESKVSKLVTDKAAGKITDAFSSLAKRSNFRAISKKLNLIPRVDGEYDLKVPRDMAYVFGGAYVPLSCRIIEQVLERRSWQGLDEVVRLLNCSDFAFTDMTKEDKASSESLRLILVVFLGGCTFSEISALRFLGREKGYRFIFLTTAVTNSARLMEAMSEVKA", "partner": "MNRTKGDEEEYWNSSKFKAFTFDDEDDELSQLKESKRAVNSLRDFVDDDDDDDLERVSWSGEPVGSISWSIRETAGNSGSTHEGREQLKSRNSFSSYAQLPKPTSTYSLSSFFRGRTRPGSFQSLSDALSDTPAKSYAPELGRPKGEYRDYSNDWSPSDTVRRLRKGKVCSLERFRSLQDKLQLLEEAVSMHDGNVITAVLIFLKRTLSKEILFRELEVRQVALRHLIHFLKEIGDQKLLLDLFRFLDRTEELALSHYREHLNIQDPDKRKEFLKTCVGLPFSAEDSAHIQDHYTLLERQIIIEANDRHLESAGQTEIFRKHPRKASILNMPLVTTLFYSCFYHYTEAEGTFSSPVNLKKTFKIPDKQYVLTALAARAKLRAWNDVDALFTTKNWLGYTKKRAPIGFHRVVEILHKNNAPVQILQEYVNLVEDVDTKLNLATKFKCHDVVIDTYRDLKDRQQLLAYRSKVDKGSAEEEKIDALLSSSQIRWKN"}}}
{"variants_of": "B1", "settings": "with spe39_human VIPAS39, Q9H9C1"}
{"variant": "L30P", "effect of a mutation on the interaction": "decreasing interaction"}
